# Data as given in patent US8628762B2, “T-helper cell type 17 lineage-specific adjuvants, compositions and methods” (Icahn School of Medicine at Mount Sinai, priority 2008, dated 2014).
# B1: IL-6: cytokine interleukin-6 (Peprotech), 50 ng/mL (protein, UniProt P08505 25-211, looked up)
# Interleukin-6: FPTSQVRRGDFTEDTTPNRPVYTTSQVGGLITHVLWEIVEMRKELCNGNSDCMNNDDALAENNLKLPEIQRNDGCYQTGYNQEICLLKISSGLLEYHSYLEYMKNNLKDNKKDKARVLQRDTETLIHIFNQEVKDLHKIVLPTPISNALLTDKLESQKEWLRTKTIQFILKSLEEFLKVTLRSTRQT
# System: Naïve CD4 T-cells
# Experiment: In vitro T-cell differentiation in DC conditioned medium, IL-17/IL-10 in supernatants by ELISA
# Format: cell-based, C57BL/6J mice
# Conditions: IL-6 supplemented to DCCM-apoptotic B-cells
# Method: Bone marrow (BM)-derived GM-CSF DC cultures were grown in RPMI supplemented with GM-CSF and 5% foetal bovine serum (FBS), plus 100 μg/mL penicillin, 100 μg/mL streptomycin, 2 mM L-glutamine, 10 mM HEPES, 1 nM sodium pyruvate, 1×MEM nonessential amino acids, and 2.5 μM β-mercaptoethanol (all from Sigma-Aldrich, St. Louis, Mo.), as previously dcseribed^1. Semi-adherent cells were harvested on ice on day 5 and re-plated immediately in fresh GM-CSF medium at 1×10^6 cells/well in 24-well tissue culture-treated plates. Soluble or phagocytic stimuli were added right away to the plates in the same medium and the cells were centrifuged for 2 min at 2000 rpm. Supernatants (conditioned medium, CM) were collected after 18 hours. LPS (from E. coli, serotype 055:B5, L-2880) was purchased from Sigma-Aldrich. BMDC were treated with various doses of soluble LPS or 2:1 A20 LPS blasts:DC to titrate the LPS such that levels of IL-6 produced by DC in response to these stimuli was similar. Soluble LPS was used at a final concentration of 1 ng/mL. The A20 B-cell line was obtained from the ATCC (TIB-208). A20 LPS blasts were prepared by culturing A20 cells at 1×10^6 cells/mL, 3 mL/well in 6-well tissue culture plates for four days in RPMI medium supplemented with 10% FBS, with 100 μg/mL penicillin, 100 μg/mL streptomycin, 2 mM L-glutamine, 10 mM HEPES, 1 nM sodium pyruvate, plus 25 μg/mL LPS, as previously described in Blander, J. M. and Medzhitov, R. (2004) Science 304(5673):1014. […] Cells were centrifuged, counted, and apoptosis was induced by UV irradiation at 350 mJ. […]
# Naïve CD4 T cells were isolated first by sorting with MACS® CD4^+ beads (Miltenyi Biotech, Auburn, Calif.) according to manufacturer's instructions and then by fluorescence activated cell sorting (FACS) using a MoFlo™, Vantage, or Influx™ cell sorter for CD25^−CD44^lowCD62L^high cells using allophycocyanin (APC)-conjugated anti-CD25 monoclonal antibody (mAb) (clone PC61.5), FITC-conjugated CD62L mAb (clone MEL-14), and PE-Cy5-conjugated CD44 mAb (clone IM7) (all from eBioscience™, San Diego, Calif.). […]
molecule,measurement,value
B1,IL-17 production,restored IL-17 production
